Assay results reported in patent publication US20240384250A1, “FIBROBLAST GROWTH FACTOR 23 MODULATING COMPOUNDS” (THE UAB RESEARCH FOUNDATION, priority 2021, published 2024).
Entries after “also recorded” stand apart in the source; their conditions may differ.

Tests used:
Assay in all cases: Pull-down of FLAG-sKL with Fc-tagged FGFR on protein A/G beads, absence of FGF23
Format in all cases: binding
[1] = target: T1, FGFR4 (Homo sapiens, UniProt P22455); details: listed as FLAG-sKL
T1 construct: Fc-FGFR4 protein (human ectodomain) was immobilized; purchased R&D Systems 685FR050
T1 sequence (P22455 22-369 limits assumed): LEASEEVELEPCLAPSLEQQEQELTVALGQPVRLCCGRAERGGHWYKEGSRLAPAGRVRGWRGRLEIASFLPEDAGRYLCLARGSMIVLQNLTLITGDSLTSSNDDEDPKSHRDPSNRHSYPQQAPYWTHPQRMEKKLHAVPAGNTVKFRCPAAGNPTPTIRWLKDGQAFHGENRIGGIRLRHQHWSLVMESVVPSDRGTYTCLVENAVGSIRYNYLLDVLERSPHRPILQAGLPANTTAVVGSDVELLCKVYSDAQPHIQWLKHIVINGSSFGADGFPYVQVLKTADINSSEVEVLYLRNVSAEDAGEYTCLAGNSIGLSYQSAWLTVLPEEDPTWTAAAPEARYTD
Experimental: (§1) To study the interaction between Fc-tagged FGFR isoforms (Fc-FGFR), FGF isoforms, and sKL, immunoprecipitation studies were conducted. Protein A beads (6501, BioVision) and protein G beads (6511, BioVision) were used at 25 μl of a 50% stock slurry per sample in a total bead volume of 50 μl. Beads were washed 5× in activity buffer (50 mM Tris [pH 7.4], 200 mM NaCl, 0.01% Tween 20). Bead spin-down assays were all performed for 2 minutes at 5000 g. Beads were resuspended in 1 ml of activity buffer in a 1.5-ml snap cap tube. One microgram of Fc-FGFR1 to 4 was incubated with the beads for 1 hour on a bead rotator. Control samples were incubated with 2 μg of anti-FGF antibody instead of Fc-FGFR. Beads were then pelleted at 5000 g for 2 minutes and washed 5× with activity buffer. Beads were resuspended and incubated with different combinations of 500 ng of FGF, 1 μg of sKL, 1.6 United States Pharmacopeia (USP) units of heparin, or phosphate-buffered saline (PBS). Beads were incubated for 1 hour on a tube rotator, and beads were pelleted and washed as before. One hundred microliters of 1× Laemmli sample buffer (1610737, Bio-Rad) with 1.42 M 2-mercaptoethanol was added, and samples were boiled for 5 minutes. Samples were analyzed using SDS-PAGE and Western blotting.
(§2) The sample (20 μl) was loaded onto Mini-PROTEAN TGX Precast Gel 4-20% for experiments with <9 samples (4568094, Bio-Rad) or Criterion TGX Precast Gel 4-20% (5678094, Bio-Rad) for experiments with >9 samples. Gels were run in 1× Tris/Glycine/SDS buffer (1610732, Bio-Rad) at 150 V and stopped when the sample dye reached the end of the gel. Gels were removed and electrotransferred via a semi-dry cassette (1703940, Bio-Rad) in I× Tris/Glycine buffer (1610734, Bio-Rad) with 20% methanol. Gels were transferred onto polyvinylidene diflouride membranes (IPVH00010, Millipore) at 20 V for 1 hour. Membranes were then blocked in 5% dried milk with 0.5% Tween 20 diluted in Tris-buffered saline (TBST; pH 7.5) for 1 hour and probed with antibodies against specific antigens at 1:1000 in TBST with 5% dried milk. Blots were washed 3× for 5 minutes in TBST and probed with HRP-coupled secondary antibodies against specific species at 1:10,000 in TBST with 5% dried milk. Membranes were imaged on the SRX-101A X-ray film developer (Konica Minolta).

[2] = target: T2, FGFR3c (Homo sapiens, UniProt P22607)
T2 construct: Fc-coupled FGFR ectodomains were immobilized on protein A/G beads; purchased R&D Systems 766FR050
T2 sequence (P22607 23-375 limits assumed): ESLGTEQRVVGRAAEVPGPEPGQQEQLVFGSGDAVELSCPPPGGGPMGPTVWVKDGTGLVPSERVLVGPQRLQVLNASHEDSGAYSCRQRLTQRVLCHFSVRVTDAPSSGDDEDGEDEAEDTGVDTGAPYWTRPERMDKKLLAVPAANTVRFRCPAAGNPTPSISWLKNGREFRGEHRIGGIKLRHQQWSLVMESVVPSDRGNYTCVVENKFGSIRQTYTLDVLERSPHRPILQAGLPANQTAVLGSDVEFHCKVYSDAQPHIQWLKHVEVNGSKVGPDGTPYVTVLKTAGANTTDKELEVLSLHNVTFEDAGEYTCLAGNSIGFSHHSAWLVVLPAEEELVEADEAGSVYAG
Experimental: as §1, §2

[3] = target: T3, FGFR2c (Homo sapiens, UniProt P21802)
T3 construct: Fc-coupled FGFR ectodomains were immobilized on protein A/G beads; purchased R&D Systems 712FR050
Experimental: as §1, §2

[4] = target: T4, FGFR1c (Homo sapiens, UniProt P11362)
T4 construct: Fc-coupled FGFR ectodomains were immobilized on protein A/G beads; purchased R&D Systems 658FR050
T4 sequence (P11362 22-376 limits assumed): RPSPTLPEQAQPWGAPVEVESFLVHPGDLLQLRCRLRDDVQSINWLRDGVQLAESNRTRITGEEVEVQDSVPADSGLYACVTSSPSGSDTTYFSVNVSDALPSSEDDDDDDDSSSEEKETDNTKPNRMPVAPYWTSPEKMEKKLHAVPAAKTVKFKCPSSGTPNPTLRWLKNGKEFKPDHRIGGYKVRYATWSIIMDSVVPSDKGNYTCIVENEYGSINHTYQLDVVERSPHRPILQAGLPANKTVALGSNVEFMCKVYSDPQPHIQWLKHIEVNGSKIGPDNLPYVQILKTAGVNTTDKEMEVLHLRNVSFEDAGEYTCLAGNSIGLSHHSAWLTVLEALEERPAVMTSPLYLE
Experimental: as §1, §2

T3 sequence (P21802 22-377 limits assumed): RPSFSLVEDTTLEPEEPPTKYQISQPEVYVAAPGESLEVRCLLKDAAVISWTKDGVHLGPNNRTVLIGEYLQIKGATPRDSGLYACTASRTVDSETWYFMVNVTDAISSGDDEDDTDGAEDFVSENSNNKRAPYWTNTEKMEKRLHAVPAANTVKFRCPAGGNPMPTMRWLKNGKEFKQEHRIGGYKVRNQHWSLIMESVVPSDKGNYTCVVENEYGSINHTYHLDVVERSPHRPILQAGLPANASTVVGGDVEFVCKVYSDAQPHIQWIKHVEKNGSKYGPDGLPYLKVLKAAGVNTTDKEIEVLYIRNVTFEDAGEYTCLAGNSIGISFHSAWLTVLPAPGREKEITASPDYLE

B1: sKL: recombinant soluble α-klotho ectodomain, mouse aa 35-982 and human aa 34-981, FLAG- or Strep/His-tagged, purified from HEK293 cells (protein)
chain: EPGDGAQTWARFSRPPAPEAAGLFQGTFPDGFLWAVGSAAYQTEGGWQQHGKGASIWDTFTHHPLAPPGDSRNASLPLGAPSPLQPATGDVASDSYNNVFRDTEALRELGVTHYRFSISWARVLPNGSAGVPNREGLRYYRRLLERLRELGVQPVVTLYHWDLPQRLQDAYGGWANRALADHFRDYAELCFRHFGGQVKYWITIDNPYVVAWHGYATGRLAPGIRGSPRLGYLVAHNLLLAHAKVWHLYNTSFRPTQGGQVSIALSSHWINPRRMTDHSIKECQKSLDFVLGWFAKPVFIDGDYPESMKNNLSSILPDFTESEKKFIKGTADFFALCFGPTLSFQLLDPHMKFRQLESPNLRQLLSWIDLEFNHPQIFIVENGWFVSGTTKRDDAKYMYYLKKFIMETLKAIKLDGVDVIGYTAWSLMDGFEWHRGYSIRRGLFYVDFLSQDKMLLPKSSALFYQKLIEKNGFPPLPENQPLEGTFPCDFAWGVVDNYIQVDTTLSQFTDLNVYLWDVHHSKRLIKVDGVVTKKRKSYCVDFAAIQPQIALLQEMHVTHFRFSLDWALILPLGNQSQVNHTILQYYRCMASELVRVNITPVVALWQPMAPNQGLPRLLARQGAWENPYTALAFAEYARLCFQELGHHVKLWITMNEPYTRNMTYSAGHNLLKAHALAWHVYNEKFRHAQNGKISIALQADWIEPACPFSQKDKEVAERVLEFDIGWLAEPIFGSGDYPWVMRDWLNQRNNFLLPYFTEDEKKLIQGTFDFLALSHYTTILVDSEKEDPIKYNDYLEVQEMTDITWLNSPSQVAVVPWGLRKVLNWLKFKYGDLPMYIISNGIDDGLHAEDDQLRVYYMQNYINEALKAHILDGINLCGYFAYSFNDRTAPRFGLYRYAADQFEPKASMKHYRKIIDSNGFPGPETLERFCPEEFTVCTECSFFHTRKS
modifications: left off: small tags and cut ends
notes: recombinant soluble α-klotho ectodomain, mouse aa 35-982 and human aa 34-981, FLAG- or Strep/His-tagged, purified from HEK293 cells
co-precipitation of FLAG-sKL with FGFR4 [1]: to a lower extent with FGFR4; also recorded: bound to FGFR4 and to a lower extent to FGFR4 | sKL binding to FGFR3c [2]: no sKL binding | sKL binding to FGFR2c [3]: no sKL binding | co-precipitation of FLAG-sKL with FGFR1c [4]: could be co-precipitated with FGFR1c
